Test results reported in the Human Domainome abundance scans (Beltran et al. 2025).
± gives the uncertainty stated by the source.

B1: POU domain, class 2, transcription factor 1, residues 285 to 354; numbered along this chain, P14859 (parent)
chain: LEELEQFAKTFKQRRIKLGFTQGDVGLAMGKLYGNDFSQTTISRFEALNLSFKNMCKLKPLLEKWLNDAE

Variants of: B1
Test: abundance fitness (aPCA) (normalised: wild type 0, dead -1); higher = more abundant; growth selection in yeast, the domain comes from the species named
Conditions: Homo sapiens

K64H and K64G are within error of each other in abundance fitness: -0.1 ± 0.058 for the first, -0.026 ± 0.03 for the second.

Going from K64Y to K64Q, the abundance fitness rises from -0.225 ± 0.058 to -0.011 ± 0.037.

K64A and K64N are within error of each other in abundance fitness: -0.036 ± 0.025 for the first, -0.022 ± 0.043 for the second.

K64S and K64R are within error of each other in abundance fitness: 0.011 ± 0.027 for the first, -0.019 ± 0.028 for the second.

First: K64D
Second: K64P
The abundance fitness of the first is higher: -0.037 ± 0.05 for the first, -0.387 ± 0.036 for the second.

K64C and K64W are within error of each other in abundance fitness: -0.143 ± 0.068 for the first, -0.113 ± 0.033 for the second.

K64T and K64E are within error of each other in abundance fitness: -0.04 ± 0.03 for the first, -0.02 ± 0.029 for the second.

E63A and E63W are within error of each other in abundance fitness: 0.07 ± 0.081 for the first, -0.075 ± 0.15 for the second.

E63R and E63D are within error of each other in abundance fitness: -0.199 ± 0.1 for the first, -0.45 ± 0.36 for the second.

Going from E63P to E63Q, the abundance fitness rises from -0.571 ± 0.19 to -0.07 ± 0.06.

E63G and E63T are within error of each other in abundance fitness: -0.023 ± 0.11 for the first, -0.1 ± 0.12 for the second.

Going from E63L to E63K, the abundance fitness falls from 0.024 ± 0.046 to -0.126 ± 0.09.

E63N and E63I are within error of each other in abundance fitness: -0.199 ± 0.26 for the first, -0.22 ± 0.13 for the second.

E63V and E63M are within error of each other in abundance fitness: -0.095 ± 0.086 for the first, -0.031 ± 0.048 for the second.

E63S and P60V are within error of each other in abundance fitness: -0.082 ± 0.11 for the first, -0.141 ± 0.064 for the second.

P60Q and P60L are within error of each other in abundance fitness: -0.094 ± 0.033 for the first, -0.074 ± 0.022 for the second.

P60H and P60R are within error of each other in abundance fitness: -0.094 ± 0.034 for the first, -0.107 ± 0.026 for the second.

P60F and P60K are within error of each other in abundance fitness: -0.114 ± 0.037 for the first, -0.072 ± 0.047 for the second.

P60I and P60T are within error of each other in abundance fitness: -0.059 ± 0.042 for the first, -0.08 ± 0.036 for the second.

P60C and P60M are within error of each other in abundance fitness: -0.051 ± 0.058 for the first, -0.065 ± 0.057 for the second.

First: P60N
Second: P60Y
The abundance fitness of the first is higher: -0.094 ± 0.041 for the first, -0.217 ± 0.04 for the second.

P60D and P60A are within error of each other in abundance fitness: -0.042 ± 0.17 for the first, -0.066 ± 0.077 for the second.

First: P60S
Second: W65N
The abundance fitness of the first is higher: -0.029 ± 0.029 for the first, -1.05 ± 0.31 for the second.

W65H and W65G are within error of each other in abundance fitness: -0.5 ± 0.18 for the first, -0.555 ± 0.033 for the second.

First: W65A
Second: W65R
The abundance fitness of the first is higher: -0.432 ± 0.043 for the first, -0.753 ± 0.035 for the second.

Going from W65K to W65Q, the abundance fitness rises from -0.961 ± 0.11 to -0.594 ± 0.046.

W65M and W65F are within error of each other in abundance fitness: -0.22 ± 0.073 for the first, 0.009 ± 0.18 for the second.

Going from W65V to W65D, the abundance fitness falls from -0.262 ± 0.073 to -0.968 ± 0.17.

First: W65Y
Second: W65S
The abundance fitness of the first is higher: -0.275 ± 0.25 for the first, -0.728 ± 0.062 for the second.

First: W65C
Second: W65E
The abundance fitness of the first is higher: -0.35 ± 0.17 for the first, -0.825 ± 0.081 for the second.

Going from W65T to W65P, the abundance fitness falls from -0.294 ± 0.045 to -0.693 ± 0.086.

W65I and W65L are within error of each other in abundance fitness: -0.633 ± 0.44 for the first, -0.305 ± 0.07 for the second.

N67D and N67S are within error of each other in abundance fitness: 0.024 ± 0.19 for the first, -0.054 ± 0.27 for the second.

Compared with L62P, L62S is higher in abundance fitness: -0.699 ± 0.064 for the first, -0.567 ± 0.031 for the second.

Compared with L62I, L62K is lower in abundance fitness: -0.091 ± 0.041 for the first, -0.937 ± 0.06 for the second.

Going from L62F to L62A, the abundance fitness falls from -0.017 ± 0.032 to -0.149 ± 0.034.

L62W and L62E are within error of each other in abundance fitness: -1.08 ± 0.17 for the first, -0.914 ± 0.083 for the second.

L62Y and L62M are within error of each other in abundance fitness: -0.069 ± 0.041 for the first, -0.006 ± 0.024 for the second.

First: L62V
Second: L62T
The abundance fitness of the first is higher: -0.102 ± 0.026 for the first, -0.406 ± 0.041 for the second.

L62D and L62G are within error of each other in abundance fitness: -0.354 ± 0.15 for the first, -0.545 ± 0.067 for the second.

Compared with L62C, L62Q is lower in abundance fitness: -0.18 ± 0.14 for the first, -0.913 ± 0.069 for the second.

L58Y and L61S are within error of each other in abundance fitness: -0.115 ± 0.057 for the first, -0.078 ± 0.033 for the second.

L61G and L61K are within error of each other in abundance fitness: -0.09 ± 0.036 for the first, -0.031 ± 0.042 for the second.

L61D and L61V are within error of each other in abundance fitness: -0.075 ± 0.061 for the first, -0.008 ± 0.025 for the second.

L61N and L61F are within error of each other in abundance fitness: -0.017 ± 0.11 for the first, -0.005 ± 0.047 for the second.

L61W and L61R are within error of each other in abundance fitness: -0.038 ± 0.035 for the first, 0.008 ± 0.047 for the second.

L61I and L61P are within error of each other in abundance fitness: -0.097 ± 0.084 for the first, -0.006 ± 0.063 for the second.

Compared with L61H, L61C is lower in abundance fitness: 0.016 ± 0.075 for the first, -0.188 ± 0.052 for the second.

L61T and L61Q are within error of each other in abundance fitness: -0.026 ± 0.053 for the first, -0.053 ± 0.047 for the second.

L61M and A69C are within error of each other in abundance fitness: -0.053 ± 0.037 for the first, -0.001 ± 0.022 for the second.

A69K and A69I are within error of each other in abundance fitness: 0.004 ± 0.024 for the first, -0.027 ± 0.021 for the second.

A69M and A69V are within error of each other in abundance fitness: 0.003 ± 0.02 for the first, 0.014 ± 0.024 for the second.

A69N and A69L are within error of each other in abundance fitness: -0.04 ± 0.023 for the first, -0.064 ± 0.02 for the second.

A69H and A69W are within error of each other in abundance fitness: -0.04 ± 0.028 for the first, -0.078 ± 0.027 for the second.

Compared with A69P, A69R is higher in abundance fitness: -0.112 ± 0.023 for the first, 0.013 ± 0.022 for the second.

First: A69S
Second: A69Q
The abundance fitness of the first is lower: -0.004 ± 0.018 for the first, 0.057 ± 0.029 for the second.

A69E and A69T are within error of each other in abundance fitness: 0.016 ± 0.04 for the first, -0.012 ± 0.019 for the second.

Going from A69Y to K59G, the abundance fitness falls from -0.038 ± 0.021 to -0.175 ± 0.029.

K59V and K59I are within error of each other in abundance fitness: -0.056 ± 0.033 for the first, -0.13 ± 0.051 for the second.

K59C and K59Y are within error of each other in abundance fitness: -0.134 ± 0.039 for the first, -0.072 ± 0.054 for the second.

Going from K59N to K59L, the abundance fitness rises from -0.311 ± 0.054 to -0.06 ± 0.023.

K59H and K59A are within error of each other in abundance fitness: -0.014 ± 0.039 for the first, -0.028 ± 0.022 for the second.

K59S and K59Q are within error of each other in abundance fitness: -0.092 ± 0.023 for the first, -0.037 ± 0.045 for the second.

Going from K59W to K59D, the abundance fitness falls from -0.026 ± 0.044 to -0.672 ± 0.084.

Compared with K59T, K59F is lower in abundance fitness: -0.033 ± 0.031 for the first, -0.138 ± 0.037 for the second.

First: K59R
Second: K59P
The abundance fitness of the first is higher: -0.005 ± 0.023 for the first, -0.72 ± 0.027 for the second.

K59M and D68K are within error of each other in abundance fitness: -0.002 ± 0.056 for the first, -0.018 ± 0.016 for the second.

D68G and D68Y are within error of each other in abundance fitness: -0.011 ± 0.019 for the first, -0.063 ± 0.033 for the second.

Compared with D68F, D68P is lower in abundance fitness: -0.011 ± 0.08 for the first, -0.419 ± 0.035 for the second.

First: D68S
Second: D68C
The abundance fitness of the first is higher: 0.026 ± 0.029 for the first, -0.106 ± 0.058 for the second.

D68M and D68H are within error of each other in abundance fitness: -0.034 ± 0.022 for the first, -0.012 ± 0.05 for the second.

First: D68W
Second: D68R
The abundance fitness of the first is lower: -0.086 ± 0.028 for the first, -0.022 ± 0.021 for the second.

D68Q and D68A are within error of each other in abundance fitness: 0.001 ± 0.023 for the first, -0.024 ± 0.023 for the second.

D68T and D68V are within error of each other in abundance fitness: -0.048 ± 0.024 for the first, -0.047 ± 0.027 for the second.

Going from D68N to L66F, the abundance fitness falls from 0.006 ± 0.024 to -0.258 ± 0.057.

First: L66Y
Second: L66Q
The abundance fitness of the first is higher: -0.11 ± 0.084 for the first, -0.279 ± 0.056 for the second.

Compared with L66C, L66K is lower in abundance fitness: -0.071 ± 0.068 for the first, -0.476 ± 0.028 for the second.

L66E and L66H are within error of each other in abundance fitness: -0.433 ± 0.039 for the first, -0.474 ± 0.11 for the second.

Compared with L66I, L66T is lower in abundance fitness: -0.017 ± 0.046 for the first, -0.206 ± 0.052 for the second.

Going from L66D to L66R, the abundance fitness rises from -0.854 ± 0.073 to -0.667 ± 0.046.

First: L66A
Second: L66G
The abundance fitness of the first is higher: -0.037 ± 0.038 for the first, -0.411 ± 0.033 for the second.

First: L66S
Second: L66M
The abundance fitness of the first is lower: -0.167 ± 0.039 for the first, 0.01 ± 0.033 for the second.

First: L66W
Second: L66V
The abundance fitness of the first is lower: -0.355 ± 0.043 for the first, -0.003 ± 0.023 for the second.

In the case of L66N, the abundance fitness is reported as -0.848 ± 0.17.
